# Reference: publication PMC7837408 (Developmental cell, 2021)
# T1: mScarlet-V5-TurboID-Rab9a (human, UniProt P51151 1-201)
# T1 sequence (looked up): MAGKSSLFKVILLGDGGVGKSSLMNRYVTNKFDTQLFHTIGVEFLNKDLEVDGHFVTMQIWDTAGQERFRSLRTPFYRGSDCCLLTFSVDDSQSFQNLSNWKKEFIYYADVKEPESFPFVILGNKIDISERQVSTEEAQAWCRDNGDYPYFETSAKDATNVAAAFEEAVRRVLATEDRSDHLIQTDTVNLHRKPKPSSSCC
# B1: Reticulon-3L (Rtn3L), endogenous (natural protein, human (endogenous in HeLa), UniProt O95197-2 1-1013, looked up)
# chain: MAEPSAATQSHSISSSSFGAEPSAPGGGGSPGACPALGTKSCSSSCAEGLSSLCSDEPSSEIMTSSFLSSSEIHNTGLTILHGEKSHVLGSQPILAKEGKDHLDLLDMKKMEKPQGTSNNVSDSSVSLAAGVHCDRPSIPASFPEHPAFLSKKIGQVEEQIDKETKNPNGVSSREAKTALDADDRFTLLTAQKPPTEYSKVEGIYTYSLSPSKVSGDDVIEKDSPESPFEVIIDKAAFDKEFKDSYKESTDDFGSWSVHTDKESSEDISETNDKLFPLRNKEAGRYPMSALLSRQFSHTNAALEEVSRCVNDMHNFTNEILTWDLVPQVKQQTDKSSDCITKTTGLDMSEYNSEIPVVNLKTSTHQKTPVCSIDGSTPITKSTGDWAEASLQQENAITGKPVPDSLNSTKEFSIKGVQGNMQKQDDTLAELPGSPPEKCDSLGSGVATVKVVLPDDHLKDEMDWQSSALGEITEADSSGESDDTVIEDITADTSFENNKIQAEKPVSIPSAVVKTGEREIKEIPSCEREEKTSKNFEELVSDSELHQDQPDILGRSPASEAACSKVPDTNVSLEDVSEVAPEKPITTENPKLPSTVSPNVFNETEFSLNVTTSAYLESLHGKNVKHIDDSSPEDLIAAFTETRDKGIVDSERNAFKAISEKMTDFKTTPPVEVLHENESGGSEIKDIGSKYSEQSKETNGSEPLGVFPTQGTPVASLDLEQEQLTIKALKELGERQVEKSTSAQRDAELPSEEVLKQTFTFAPESWPQRSYDILERNVKNGSDLGISQKPITIRETTRVDAVSSLSKTELVKKHVLARLLTDFSVHDLIFWRDVKKTGFVFGTTLIMLLSLAAFSVISVVSYLILALLSVTISFRIYKSVIQAVQKSEEGHPFKAYLDVDITLSSEAFHNYMNAAMVHINRALKLIIRLFLVEDLVDSLKLAVFMWLMTYVGAVFNGITLLILAELLIFSVPIVYEKYKTQIDHYVGIARDQTKSIVEKIQAKLPGIAKKKAE
# modifications: biotinylated by TurboID in cells (sites not given)
# Molecular target: T1, mScarlet-V5-TurboID-Rab9a
# Assay: proximity labelling
binder,measurement,value
B1,"fold Rtn3L biotinylation, WT Rab9a against Rab9aΔFSV",10 fold
